Assay results reported in US20100215653A1, “METHODS OF TREATING NEOPLASTIC, AUTOIMMUNE AND INFLAMMATORY DISEASES” (Seattle Genetics, Inc., priority 2006, published 2010).
“Also recorded” adds a separate entry of the source.

Experiments:
[1] = tested on: primary human macrophages; test: Cytokine, chemokine and growth factor production by primary human macrophages; format: cell-based
Experimental: Primary human macrophages were generated from long-term cultures of freshly isolated human peripheral blood mononuclear cells (PBMCs; AllCells, Emeryville, Calif. or LifeBlood, Memphis, Tenn.). PBMCs were cultured in tissue culture flasks in RPMI 1640 medium containing glutamine (Invitrogen, Grand Island, N.Y.), 10% heat-inactivated FBS, and antibiotics for 3 to 4 hours. Non-adherent cells were removed by washing with PBS and the adherent cells were cultured in OptiMem-I medium (Invitrogen) containing 1% heat-inactivated FBS for 1 to 2 hours. The cells were washed with PBS and cultured for 10 to 14 days in X-VIVO-15 medium (Cambrex Bio Science, Walkersville, Md.) containing 500 U/ml GM-CSF (Peprotech, Rocky Hill, N.J.).
Tissue culture media was harvested 18 h later for cytokine analyses by ELISA or Searchlight (Pierce Endogen, Rockville, Ill.).

[2] = tested on: primary human macrophages; test: Cell viability (CelltiterGlo) of primary human macrophages; format: cell-based; details: 24 to 72 hours of exposure to increasing concentrations (FIG. 8)
Experimental: Macrophages were harvested, counted, and cultured in 96-well plates at 35,000 cells per well. G-CSF-mobilized CD14^+ monocytes (Cambrex) were cultured in 96-well plates at 100,000 cells per well (adherent cells) in sterile polypropylene dishes (non-adherent cells).

KG-1 AML cell line = test: Cytokine production by KG-1 AML cell line after TNF-alpha; format: cell-based, human; details: 2.5 μg/ml pre-treatment, then 1 ng/ml TNF-alpha, 18 h
Experimental: Media was harvested 18 h later for cytokine analyses.

[3] = tested on: advanced myeloid malignancies; test: Phase I single-arm dose escalation trial; format: in vivo, human
Experimental: Entry criteria included CD33 expression on >50% of the marrow blasts to ensure that adequate target antigen was present. […] Clinical response was assessed by bone marrow morphology and hematologic improvement. […] Among AML patients, 6 had antecedent hematologic disorder. Dosing cohorts included 1.5 (6), 2.5 (4), 4 (4), and 8 mg/kg (17).

CD33 [4] = molecular target: T1, CD33 (Homo sapiens, UniProt P20138); test: CD33 tyrosine phosphorylation (CD33 immunoprecipitation, anti-phosphotyrosine Western blot); format: cell-based; parameters: endogenous in cells; host or cells: HL-60, U937; primary human CD14+ monocytes and PBMC-derived macrophages
Experimental: CD33-positive cell lines were treated with anti-CD33 antibodies (lintuzumab and certain commercially available antibodies). Cell extracts were prepared and CD33 was immunoprecipitated using an anti-CD33 antibody (MY9 clone; Beckman Coulter, Calif.). Western blotting was performed with an anti-phosphotyrosine antibody (4G10; Upstate Biotechnologies, Inc., Lake Placid, N.Y.).
(§1) Deglycosylation was confirmed by CE-SDS. […] Cell lysates were prepared and CD33 immunoprecipitated using an anti-CD33 rabbit polyclonal antibody (Santa Cruz Biotechnology, Santa Cruz, Calif.) prior to SDS PAGE gel electrophoresis. Western blot analyses of these samples were performed using the 4G10 phosphotyrosine antibody (Upstate Biotechnology, Temucula, Calif.), anti-CD33 antibody (NovoCastra, Norwell, Mass.), and anti-SHP-1 antibody (Calbiochem, San Diego, Calif.). Control lysate for SHP-1 was prepared from a B cell lymphoma cell line.

CD33 [5] = molecular target: T1, CD33; test: Recruitment of SHP-1 / SHP-2 / Syk to CD33 (CD33 immunoprecipitation, Western blot); format: cell-based; parameters: endogenous in cells; host or cells: HL-60, U937; primary human CD14+ monocytes and PBMC-derived macrophages
Experimental: To determine whether the humanized M195 antibody also recruits SHP phosphatases, HL-60 cells were treated with soluble or cross-linked anti-CD33 antibodies. Cell extracts were prepared and CD33 was immunoprecipitated with an anti-CD33 antibody (MY9 clone). Western blotting was performed with an anti-SHP-1 antibody (sc-287; Santa Cruz Biotechnology, Inc., Santa Cruz, Calif.).
as §1, with “To prepare deglycosylated SGN-33, the antibody was treated with PN-glycosidase F (New England BioLabs, Ipswich, Mass.). Deglycosylation” for “Deglycosylation”

T1 sequence (P20138 18-364): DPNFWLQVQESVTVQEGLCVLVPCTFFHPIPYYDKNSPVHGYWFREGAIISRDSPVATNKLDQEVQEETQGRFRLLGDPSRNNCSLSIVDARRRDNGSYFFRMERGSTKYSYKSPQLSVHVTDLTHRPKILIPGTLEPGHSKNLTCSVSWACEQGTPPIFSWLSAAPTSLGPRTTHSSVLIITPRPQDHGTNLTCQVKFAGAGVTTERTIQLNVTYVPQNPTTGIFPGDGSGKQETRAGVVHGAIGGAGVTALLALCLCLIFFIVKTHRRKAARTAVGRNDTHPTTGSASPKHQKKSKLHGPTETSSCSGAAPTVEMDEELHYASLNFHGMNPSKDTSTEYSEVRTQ

## SGN-33: anti-CD33 antibody, a humanized version of mouse monoclonal antibody M195
[1]; macrophages pre-incubated 3 hours with SGN-33, response to IFN-γ or conditioned media from RPMI-8226 and Karpus-620 cells, 24 h
  production of IL-6, TNF-α, RANTES and MCP-1: reduced production of IL-6, TNF-α, RANTES, and MCP-1
[1]; primary human macrophages, various doses 1 hr before IFN-γ, 18 h, p<0.05 (FIG. 20)
  levels of TNF-α: significantly reduced levels of TNF-α in a dose-dependent manner
[2]
  cell viability of macrophages: not due to an adverse effect; also recorded: does not affect the viability
KG-1 AML cell line
  production of IL-8, IP-10, MIP1β, RANTES and MCP-1: reduced the production of IL-8, IP-10, MIP1β, RANTES, and MCP-1
[3]; 31 patients
  Grade 4 adverse events considered related to antibody: none
[3]; among 18 patients with AML
  patients achieving CR: 4
  patients achieving CR with incomplete platelet recovery: 1
[3]; repeat dosing
  accumulation: documented with repeat dosing
[3]; weekly iv 1.5 to 8 mg/kg for 5 weeks, 31 patients
  dose limiting toxicity: has not been observed
CD33 [4]; HL-60 AML cells (FIG. 16)
  phosphorylation of CD33: induced phosphorylation of CD33
CD33 [4]; HL-60 and U937 cells, soluble or cross-linked antibody (FIG. 2)
  CD33 tyrosine phosphorylation: stimulated CD33 tyrosine phosphorylation
CD33 [4]; HL-60 cells, soluble and cross-linked antibody (FIG. 1)
  CD33 tyrosine phosphorylation: stimulated CD33 tyrosine phosphorylation
CD33 [5]; HL-60 and monocytes, 30 minutes (FIG. 16)
  recruitment of SHP-1 to the CD33 complex: resulted in recruitment of SHP-1 to the CD33 complex
CD33 [5]; HL-60 cells, data not shown
  recruitment of SHP-2 or Syk: did not recruit SHP-2 or Syk
